This is an account of results in patent US20230002496A1 (STAIDSON BEIJING BIOPHARMACEUTICALS, published 2023).

Substitutions are numbered along the chain they refer to.

The labels stand for the following.
T1: human GM-CSFRα, full length on cells (human, UniProt P15509 23-400)
T1 sequence: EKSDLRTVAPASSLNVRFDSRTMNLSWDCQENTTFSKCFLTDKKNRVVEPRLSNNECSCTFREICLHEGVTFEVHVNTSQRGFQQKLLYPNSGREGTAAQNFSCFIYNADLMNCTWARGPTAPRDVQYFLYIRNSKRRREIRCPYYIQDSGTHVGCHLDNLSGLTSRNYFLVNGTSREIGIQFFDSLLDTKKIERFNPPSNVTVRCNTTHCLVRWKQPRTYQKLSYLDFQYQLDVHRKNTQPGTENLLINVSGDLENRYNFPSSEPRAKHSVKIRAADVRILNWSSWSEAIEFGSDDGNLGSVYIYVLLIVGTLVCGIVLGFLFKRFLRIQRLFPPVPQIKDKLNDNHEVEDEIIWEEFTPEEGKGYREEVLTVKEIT

B1: E35-scFv LS30L (scFv, V domains shown)
VH: QMQLVQSGAEVKKPGASVKVSCKVSGYTLTELSIHWVRQAPGKGLEWMGGFDPEDGETIYAQKFQGRVTMTGDTSTDTAYLELSSLRSEDTALYYCATGRYTSLATTYGFDYWGQGTLVTVSS
VL: EIVMTQSPATLSLSPGERATLSCRASQSVLSYLAWYQQKPGQAPRLLIYGASSRATGIPDRFSGSGSGTDFTLTISRLEPEDFAVYYCQQYDNWPYTFGQGTKLEIK
B2: E35-scFv LY32W (scFv, V domains shown)
VH: B1 VH
VL: B1 VL with L30S, Y32W
B3: E35-scFv LY32R (scFv, V domains shown)
VH: B1 VH
VL: B1 VL with L30S, Y32R
B4: E35-scFv LY32T (scFv, V domains shown)
VH: B1 VH
VL: B1 VL with L30S, Y32T
B5: E35-scFv LY32F (scFv, V domains shown)
VH: B1 VH
VL: B1 VL with L30S, Y32F
B6: E35-scFv LY32G (scFv, V domains shown)
VH: B1 VH
VL: B1 VL with L30S, Y32G
B7: E35-scFv LS30Y (scFv, V domains shown)
VH: B1 VH
VL: B1 VL with L30Y
B8: E35-scFv LY32A (scFv, V domains shown)
VH: B1 VH
VL: B1 VL with L30S, Y32A
B9: E35-scFv LS30C (scFv, V domains shown)
VH: B1 VH
VL: B1 VL with L30C
B10: E35-scFv LY32K (scFv, V domains shown)
VH: B1 VH
VL: B1 VL with L30S, Y32K
B11: E35-scFv LS30M (scFv, V domains shown)
VH: B1 VH
VL: B1 VL with L30M
B12: E35-scFv LS30F (scFv, V domains shown)
VH: B1 VH
VL: B1 VL with L30F
B13: E35-scFv LS30T (scFv, V domains shown)
VH: B1 VH
VL: B1 VL with L30T
B14: E35-scFv LS30N (scFv, V domains shown)
VH: B1 VH
VL: B1 VL with L30N
B15: E35-scFv LY32E (scFv, V domains shown)
VH: B1 VH
VL: B1 VL with L30S, Y32E
B16: E35-scFv LY32Q (scFv, V domains shown)
VH: B1 VH
VL: B1 VL with L30S, Y32Q
B17: E35-scFv LS52A (scFv, V domains shown)
VH: B1 VH
VL: B1 VL with L30S, S52A
B18: E35-scFv LS30E (scFv, V domains shown)
VH: B1 VH
VL: B1 VL with L30E
B19: E35-scFv LY32L (scFv, V domains shown)
VH: B1 VH
VL: B1 VL with L30S, Y32L
B20: E35-scFv LY32V (scFv, V domains shown)
VH: B1 VH
VL: B1 VL with L30S, Y32V
B21: E35-scFv LY32P (scFv, V domains shown)
VH: B1 VH
VL: B1 VL with L30S, Y32P
B22: E35-scFv LS30V (scFv, V domains shown)
VH: B1 VH
VL: B1 VL with L30V
B23: E35-scFv LY32M (scFv, V domains shown)
VH: B1 VH
VL: B1 VL with L30S, Y32M
B24: E35-scFv LS30R (scFv, V domains shown)
VH: B1 VH
VL: B1 VL with L30R
B25: E35-scFv LS30G (scFv, V domains shown)
VH: B1 VH
VL: B1 VL with L30G
B26: E35-scFv LS30W (scFv, V domains shown)
VH: B1 VH
VL: B1 VL with L30W
B27: E35-scFv LY32N (scFv, V domains shown)
VH: B1 VH
VL: B1 VL with L30S, Y32N
B28: E35-scFv LS30K (scFv, V domains shown)
VH: B1 VH
VL: B1 VL with L30K
B29: E35-scFv LS30A (scFv, V domains shown)
VH: B1 VH
VL: B1 VL with L30A
B30: E35-scFv LY32C (scFv, V domains shown)
VH: B1 VH
VL: B1 VL with L30S, Y32C
B31: E35-scFv LS52W (scFv, V domains shown)
VH: B1 VH
VL: B1 VL with L30S, S52W

The experiment has as its target T1, human GM-CSFRα, full length on cells. The experiment in a line: cell-based or functional assay.
Take B1: the “IC50, TF-1 cell proliferation” value was determined as 0.069 µg/mL.

As for B2, the “IC50, TF-1 cell proliferation” value came to 1.17 µg/mL.

Regarding B3, the “IC50, TF-1 cell proliferation” value stood at 3.12 µg/mL.

With B4, the “IC50, TF-1 cell proliferation” value amounted to 0.51 µg/mL.

On to B5, for which the “IC50, TF-1 cell proliferation” value came to 0.21 µg/mL.

For B6, the “IC50, TF-1 cell proliferation” value was determined as 1.35 µg/mL.

Turning to B7, the “IC50, TF-1 cell proliferation” value is 0.082 µg/mL.

With B8, the “IC50, TF-1 cell proliferation” value stood at 1.35 µg/mL.

As to B9, the “IC50, TF-1 cell proliferation” value was determined as 0.221 µg/mL.

Consider B10, for which the “IC50, TF-1 cell proliferation” value turned out to be 9.6 µg/mL.

In the case of B11, the “IC50, TF-1 cell proliferation” value is 0.073 µg/mL.

For B12, the “IC50, TF-1 cell proliferation” value was 0.16 µg/mL.

Turning to B13, the “IC50, TF-1 cell proliferation” value is 0.092 µg/mL.

In the case of B14, the “IC50, TF-1 cell proliferation” value stood at 0.132 µg/mL.

In the case of B15, the “IC50, TF-1 cell proliferation” value was determined as 3.75 µg/mL.

Regarding B16, the “IC50, TF-1 cell proliferation” value turned out to be 0.87 µg/mL.

For the molecule B17, the “IC50, TF-1 cell proliferation” value was found to be 0.068 µg/mL.

B18: the “IC50, TF-1 cell proliferation” value is 0.1 µg/mL.

For the molecule B19, the “IC50, TF-1 cell proliferation” value was 0.07 µg/mL.

Consider B20, for which the “IC50, TF-1 cell proliferation” value came to 1.23 µg/mL.

B21: the “IC50, TF-1 cell proliferation” value was determined as 5.15 µg/mL.

With B22, the “IC50, TF-1 cell proliferation” value came to 0.124 µg/mL.

As for B23, the “IC50, TF-1 cell proliferation” value worked out at 0.42 µg/mL.

As to B24, the “IC50, TF-1 cell proliferation” value is 0.088 µg/mL.

On to B25, for which the “IC50, TF-1 cell proliferation” value worked out at 0.092 µg/mL.

As to B26, the “IC50, TF-1 cell proliferation” value turned out to be 0.071 µg/mL.

As to B27, the “IC50, TF-1 cell proliferation” value worked out at 2.05 µg/mL.

Turning to B28, the “IC50, TF-1 cell proliferation” value came to 0.083 µg/mL.

Turning to B29, the “IC50, TF-1 cell proliferation” value is 0.078 µg/mL.

As for B30, the “IC50, TF-1 cell proliferation” value was 1.9 µg/mL.

Consider B31, for which the “IC50, TF-1 cell proliferation” value amounted to 0.073 µg/mL.
